Data from patent US20180215829A1 (CRESCENDO BIOLOGICS, published 2018).

Tests used:
[1] = molecular target: T1, recombinant human IL-17RA Fc fusion protein (R&D Systems 177-IR-100) (human, UniProt Q96F46 33-320); test: IL-17RA ligand inhibition ELISA (FIG. 10A): VH competes with IL-17A for coated IL-17RA-Fc
T1 construct: Bought protein; not shown: Fc domain of human IgG1
T1 sequence: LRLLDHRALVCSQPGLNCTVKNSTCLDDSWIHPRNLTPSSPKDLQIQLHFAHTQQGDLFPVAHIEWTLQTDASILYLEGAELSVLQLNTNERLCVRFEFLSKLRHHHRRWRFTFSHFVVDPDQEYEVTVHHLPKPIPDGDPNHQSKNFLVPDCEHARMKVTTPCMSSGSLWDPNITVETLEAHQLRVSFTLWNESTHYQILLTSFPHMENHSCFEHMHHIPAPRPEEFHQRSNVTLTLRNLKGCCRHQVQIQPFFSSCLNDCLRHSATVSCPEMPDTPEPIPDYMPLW
Method: (§1) VH, both purified and crude periplasmic extracts, were also tested for their ability to inhibit the interaction of IL-17A with recombinant IL-17RA-Fc. […] Following washing of excess coating antigen, as described above, the wells of the plate were incubated with 3% Marvel/PBS to block non-specific protein interactions. VH preparations, crude periplasmic extracts or purified VH, or suitable controls, were prepared with 1 nM recombinant IL-17A (Peprotech, cat# AF-200-17) in 3% skimmed milk powder/PBS solution in polypropylene plates or tubes. The mixture was then transferred to the assay plate and incubated for 1 hour at room temperature. Excess protein was removed by washing and bound IL-17A was detected by incubation with biotinylated anti-IL-17A Mab (R & D Systems, cat BAF317) followed by the addition of neutravidin-HRP (Pierce, cat#31030) and TMB substrate (Sigma, cat# T0440). The TMB reaction was stopped by addition of 0.5M H₂SO₄ and absorbances were measured at 450 nm in a plate reader.

[2] = molecular target: T1, recombinant human IL-17RA Fc fusion …; test: receptor/ligand biochemical inhibition ELISA: VH competes with 1 nM IL-17A for coated IL-17RA-Fc
Method: as §1

[3] = molecular target: T1, recombinant human IL-17RA Fc fusion …; test: as above; remark: listed apart in the source
Method: as §1

[4] = molecular target: T1, recombinant human IL-17RA Fc fusion …; test: BIAcore T200 single-cycle kinetics, IL-17RA-Fc captured on protein G chip, VH as analyte
Method: Binding kinetics of anti-IL-17RA VH antibodies were measured on a BIAcore® T200 instrument. For IL-17RA, first a protein G chip was prepared by diluting protein G to 20 ug/ml in acetate buffer, pH 4 (BIAcore®, cat# BR-100-49) and then coupled 1200 RU to a CM5 Series S chip using amine coupling chemistry. This surface was then used to capture IL-17RA Fc fusion protein from solution: IL-17RA at 10 ug/ml in HBS injected for 10 seconds at 30 ul/min flow rate would capture approximately 100-150 RU of IL-17RA onto the protein G surface.
Binding kinetics of anti-IL-17RA VH antibodies were determined by single-cycle kinetics. VH antibodies were prepared in dilution series (typically 1:3 dilution series starting with 100 nM VH at the highest concentration), and then injected over the antigen coated surfaces and also a blank surface, starting with the lowest concentration of VH and then working progressively up to the highest concentration. VH binding kinetics were then determined from the (blank subtracted) sensorgram traces using 1:1 binding models and BIAevaluation software.

[5] = molecular target: T2, human IL-17RA on HT1080 cells (human, UniProt Q96F46 33-866); test: cell-based or functional assay
T2 sequence: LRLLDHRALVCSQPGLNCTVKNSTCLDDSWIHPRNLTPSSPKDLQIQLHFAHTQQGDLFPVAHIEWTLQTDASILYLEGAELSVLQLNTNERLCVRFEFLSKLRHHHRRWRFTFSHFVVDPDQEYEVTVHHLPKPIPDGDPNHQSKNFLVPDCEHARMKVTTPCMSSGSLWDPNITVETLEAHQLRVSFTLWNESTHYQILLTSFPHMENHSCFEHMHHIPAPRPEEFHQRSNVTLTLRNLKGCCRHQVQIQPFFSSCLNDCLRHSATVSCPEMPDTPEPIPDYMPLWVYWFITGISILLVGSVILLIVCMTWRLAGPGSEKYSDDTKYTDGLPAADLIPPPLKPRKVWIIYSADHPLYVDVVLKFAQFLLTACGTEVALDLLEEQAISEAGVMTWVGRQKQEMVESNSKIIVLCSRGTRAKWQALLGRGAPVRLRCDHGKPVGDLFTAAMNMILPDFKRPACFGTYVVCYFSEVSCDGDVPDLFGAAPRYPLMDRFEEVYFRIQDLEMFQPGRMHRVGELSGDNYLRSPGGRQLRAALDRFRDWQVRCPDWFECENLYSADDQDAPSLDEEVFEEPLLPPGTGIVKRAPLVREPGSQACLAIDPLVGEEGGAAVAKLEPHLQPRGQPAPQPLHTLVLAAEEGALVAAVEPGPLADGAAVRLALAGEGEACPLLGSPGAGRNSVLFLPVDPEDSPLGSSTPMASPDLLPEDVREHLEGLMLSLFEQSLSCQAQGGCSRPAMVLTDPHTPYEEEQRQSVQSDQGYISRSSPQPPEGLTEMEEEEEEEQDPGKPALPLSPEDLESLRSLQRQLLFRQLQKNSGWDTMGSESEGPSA

[6] = molecular target: T2, human IL-17RA on HT1080 cells; test: cell-based or functional assay; remark: listed apart in the source

B1: VH clone 2.1 (VHH)
VHH: QVQLVQSGAEVKKPGASVKVSCKASGYPFTSYDINWVRQATGQSLEWMGWMNPNSGDTVYAQKFQGRVTMTRNTSISTAYMELSSLRSEDTAVYFCARGRRDDWKNNYWGQGTLVTVSS
notes: Human VH single domain antibody, no light chain; Parent clone of family 2; also called VH 2.1
IC50 [1]: 4 nM | IC50 [2]: 3.7 nM | IC50 [3]: 3.7 nM | Kd [4]: 7 nM | Cell assay IC50 [5]: 280 nM | IC50 (nM), cell-based assay [6]: 363 nM
